Measured values from the nanobody polyreactivity screen of Harvey et al. (2022).

Assay: yeast display, Sf9 membrane polyspecificity reagent, FACS + sequencing; frameworks hold sequencing errors
Procedure, shortened: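 Genes from sorted yeast were amplified by colony PCR, read by MiSeq 2 × 250 sequencing and filtered on CDR length. These cells carried a synthetic nanobody library in Saccharomyces cerevisiae BJ5465 and were sorted by FACS into low and high (top ~1%) gates on anti-HA and streptavidin fluorescence. Polyreactivity is labelled according to the gate of origin.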

Sequence | polyreactivity (PSR sort gate)
QVQLVESGGGLVQAGGSLRLSCAASGRIFWYYTMGWYRQAPGKERELVAAISRGGSTYYADSVKGRFTISRDNAKNTVYLQMNSLKPEDTAVYYCAAQESWKIYDYWGQGTQVTVSS | low polyreactivity
QVQLVESGGGLVQAGGSLRLSCAASGRIFYANTMGWYRQAPGKERELVAAITGDGSTYADSVKGRFTISRDNAKNTVYLQMNSLKPEDTAVFYCAAEVDYSAFDYWGQGTQVTVSS | low polyreactivity
QVQLVESGGGLVQAGGSLRLSCAASGRIFYDYAMGWYRQAPGKERELVAAISGSGGSTYYADSVKGRFTISRDNAKNTVYLQMNSLKPEDTAVYYCNRYTTRYYPGGDYWGQGTQVTVSS | high polyreactivity
QVQLVESGGGLVQAGGSLRLSCAASGRIFYDYTMVWYRQAPGKERDLVATITSGGNTNYADSVKGRFTISRDNAKNTVYLPMNSLKPVDTAVYYCAPSYSAKRVKTGRVWYGYWGQGTQVTVSS | low polyreactivity
QVQLVESGGGLVQAGGSLRLSCAASGRIFYEYAMGWYRQAPGKERELVAAITRGDSTYYADSVKGRCTISRDNAKNTVYLQMNSLKPEDTAVYYCNAGVFDYSGDSNYWGQGTQVTVSS | low polyreactivity
QVQLVESGGGLVQAGGSLRLSCAASGRIFYFNAMAWYRQAPGKERELVAAISGSGGDTYYADSVKGRFTISRDNAKNTVYLQMNRLKPEETAVYYCAAEVYTWGQGTQVSVSS | low polyreactivity
QVQLVESGGGLVQAGGSLRLSCAASGRIFYFNAMGWYRQAPGKEREFVASINSIGDSTYYADSVKGRFTISRDNAKNTVYIQMNSQKPEDTAVYYCKADHGVINYRLDYWGHGTQVTVSS | low polyreactivity
QVQLVESGGGLVQAGGSLRLSCAASGRIFYFNAMGWYRQAPGKERELVAAISGSGGDTYYADTVKGRFTISRDNAKNTVYLQMNCLKPEDTAVYYCAAEVYTWGQGTQVTVSS | low polyreactivity
QVQLVESGGGLVQAGGSLRLSCAASGRIFYFNAMGWYRQAPGKERELVAAISWRGGSTYYADSVKGRFTISRDYAKNTVYLQMNSLKPEDTAVYYCNAVLWGYWPGYDYWGQGTQVTVSS | high polyreactivity
QVQLVESGGGLVQAGGSLRLSCAASGRIFYFNGMGWDRQAPGKERELVAAITWNTGSTYYADSVKGRFTISRDNAKNTVYLQMNSLKPEDTAVYYCNAPWAGQHPTLWKGGYWGQGTQVTVSS | low polyreactivity
QVQLVESGGGLVQAGGSLRLSCAASGRIFYFNTMGWYRQAPGKERELVAAISRSGTSTYYADSVKGRFTISRDNAKNTVYLQMNSLKPEDTAVYYCAAVKSYYKLDYWGQGTQVTVSS | high polyreactivity
QVQLVESGGGLVQAGGSLRLSCAASGRIFYFYAMGWYRQAPGKERELVAAISTSGGSTYYADSVKGRFTISRDNAKITVYLQMNSLKPEDTAVYYCAARFRYYGSEYDYWGQGTQVTVSS | low polyreactivity
QVQLVESGGGLVQAGGSLRLSCAASGRIFYFYAMGWYRQAPGKEREMVASISYSGGNTYYADSVKGRFTISRDNAKNTVYLQMNSLKPEDTAVYYCNVLPNTGARGYYYWGQGTQVTVSS | low polyreactivity
QVQLVESGGGLVQAGGSLRLSCAASGRIFYFYAMVWYRQAPGKERELVAAISTSGGSTYYADSVKGRFTISRDNAKNTVYLQMNSLKPEDTAVYYCAARFRYYGSEYDYWGQGTQVTVSS | low polyreactivity
QVQLVESGGGLVQAGGSLRLSCAASGRIFYGNALGWYRHAPGKERELVATISSSGGRTTYADSVKGRFTISRDNAKNTVYLPMNSLKPEDTAVYYCAAQGYWTGYDYWGQGTQVTVSS | high polyreactivity
QVQLVESGGGLVQAGGSLRLSCAASGRIFYGNAMGWYRQAPGKERELVAAITRSGSSTYYADSVKGRFTISRDNAKNTVYLQMNSLKPEVTAVYYCAVKYFDYVGQYAYYYWGQGTQVTVSS | high polyreactivity
QVQLVESGGGLVQAGGSLRLSCAASGRIFYGNTMGWYRQAPGKERELVAAITIGDSTNYADSVKGRFTISRDNAKNTVYLQMNSLKPEDTEVYFCAKRNWWGYYKYDYWGQGTQVTVSS | low polyreactivity
